The supplement of paper PMC7877785
± gives the uncertainty stated by the source.

Test: self-splicing fitness, log relative to wild type (ln ratio); higher = more splicing; Tetrahymena group I intron in knt gene, E. coli kanamycin selection, DiMSum; sequences stand for … in CUCUCU…GGAGGGAAAAGUUAUCAGGCAUGCACCUGGUAGCUAGUCUUUAAACCAAUAGAUUGCAUCGGUUUAAAAGGCAAGACCGUCAAAUUGCGGGAAAGGGGUCAACAGCCGUUCAGUACCAAGUCUCAGGGGAAACUUUGAGAUGGCCUUGCAAAGGGUAUGGUAAUAAGCUGACGGACAUGGUCCUAACCACGCAGCCAAGUCCUAAGUCAACAGAUCUUCUGUUGAUAUGGAUGCAGUUCACAGACUAAAUGUCGGUCGGGGAAGAUGUAUUCUUCUCAUAAGAUAUAGUCGGACCUCUCCUUAAUGGGAGCUAGCGGAUGAAGUGAUGCAACACUGGAGCCGCUGGGAACUAAUUUGUAUGCGAAAGUAUAUUGAUUAGUUUUGGAGUACUCGUGGUCG
In short: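 Six replicate transformations of E. coli BL21(DE3) with a pET-22b(+) library were grown overnight at 37°C or 30°C. The library randomised all eight P1ex-region intron nucleotides, the intron lying in the knt kanamycin-resistance gene, and plates were LB agar with or without 25 μg/mL kanamycin plus 100 μg/mL carbenicillin, 50 μM IPTG and 0.2% rhamnose. Pooled colonies were amplicon-sequenced on an Illumina HiSeq 2500, and fitness is the DiMSum error-weighted combination of wild-type-normalised replicate fold changes, kanamycin versus none.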

| Sequence | self-splicing fitness (ln) (30 °C) | self-splicing fitness (ln) (37 °C) |
| --- | --- | --- |
| AUAGAGCAAUAUUACGCUCA | -0.0598 ± 0.076 | 0.193 ± 0.12 |
| AUAGAGCAAUAUUACGGAGU | -0.705 ± 0.093 | -1.03 ± 0.14 |
| AUAGAGCAAUAUUACGGCCA | -1.25 ± 0.15 | -1.02 ± 0.24 |
| AUAGAGCAAUAUUACGUACU | -0.65 ± 0.12 | 0.124 ± 0.14 |
| AUAGAGCAAUAUUACGUCCG | -2.71 ± 0.23 | -3.65 ± 0.34 |
| AUAGAGCAAUAUUACGUCCU | -1.42 ± 0.093 | -0.577 ± 0.14 |
| AUAGAGCAAUAUUACGUGCG | -1.6 ± 0.11 | -0.384 ± 0.11 |
| AUAGAGCAAUAUUACGUUCG | -0.386 ± 0.077 | -0.257 ± 0.092 |
| AUAUAGCAAUAUUACGACAU | 0.126 ± 0.014 | 0.224 ± 0.033 |
| AUAUAGCAAUAUUACGACGA | -1.1 ± 0.22 | -0.564 ± 0.28 |
| AUAUAGCAAUAUUACGAGAG | – | -2.29 ± 0.22 |
| AUAUAGCAAUAUUACGAGAU | -3.01 ± 0.14 | -0.91 ± 0.13 |
| AUAUAGCAAUAUUACGAGCG | -2.19 ± 0.17 | -0.66 ± 0.16 |
| AUAUAGCAAUAUUACGAGGC | -2.74 ± 0.26 | – |
| AUAUAGCAAUAUUACGAGUC | -2.97 ± 0.34 | -2.63 ± 0.45 |
| AUAUAGCAAUAUUACGCAGU | -2.86 ± 0.25 | -3.1 ± 0.33 |
| AUAUAGCAAUAUUACGCAUG | -1.66 ± 0.12 | -0.477 ± 0.14 |
| AUAUAGCAAUAUUACGCCCA | -1.31 ± 0.3 | -0.688 ± 0.3 |
| AUAUAGCAAUAUUACGCCCG | -1.67 ± 0.21 | -1.56 ± 0.42 |
| AUAUAGCAAUAUUACGCGCC | -1.51 ± 0.33 | -1.35 ± 0.41 |
| AUAUAGCAAUAUUACGCUAG | -1.69 ± 0.25 | -1.19 ± 0.3 |
| AUAUAGCAAUAUUACGCUCC | -0.958 ± 0.25 | -0.476 ± 0.32 |
| AUAUAGCAAUAUUACGCUUC | -2.84 ± 0.38 | -2.86 ± 0.43 |
| AUAUAGCAAUAUUACGGAAG | -3.08 ± 0.36 | -1.27 ± 0.34 |
| AUAUAGCAAUAUUACGGCGC | -1.38 ± 0.19 | -0.869 ± 0.26 |

| Sequence | self-splicing fitness (ln) (30 °C) | self-splicing fitness (ln) (37 °C) |
| --- | --- | --- |
| AUAUAGCAAUAUUACGUGGC | – | -2.67 ± 0.31 |
| AUAUAGCAAUAUUACGUUAU | -3.02 ± 0.13 | -1.65 ± 0.12 |
| AUCAAGCAAUAUUACGAAAU | -2.09 ± 0.078 | -1.04 ± 0.092 |
| AUCAAGCAAUAUUACGAACA | -1.12 ± 0.08 | -0.578 ± 0.08 |
| AUCAAGCAAUAUUACGAAUC | -4.76 ± 0.41 | -2.78 ± 0.3 |
| AUCAAGCAAUAUUACGACCG | -1.33 ± 0.15 | -0.381 ± 0.18 |
| AUCAAGCAAUAUUACGACCU | -0.924 ± 0.11 | -0.336 ± 0.1 |
| AUCAAGCAAUAUUACGAUAC | -4.68 ± 0.39 | -2.17 ± 0.26 |
| AUCAAGCAAUAUUACGAUCC | -2.34 ± 0.2 | -0.539 ± 0.21 |
| AUCAAGCAAUAUUACGCAGG | -2.34 ± 0.2 | -1.8 ± 0.2 |
| AUCAAGCAAUAUUACGCCAG | -3.08 ± 0.2 | -1.32 ± 0.23 |
| AUCAAGCAAUAUUACGCCCC | -1.45 ± 0.3 | 0.787 ± 0.27 |
| AUCAAGCAAUAUUACGCGCC | -1.23 ± 0.14 | -0.474 ± 0.17 |
| AUCAAGCAAUAUUACGGAGC | -2.98 ± 0.28 | -1.92 ± 0.25 |
| AUCAAGCAAUAUUACGGCGC | -1.01 ± 0.093 | 0.428 ± 0.14 |
| AUCAAGCAAUAUUACGGGCC | -2.78 ± 0.2 | -0.86 ± 0.29 |
| AUCAAGCAAUAUUACGGUAA | -2.12 ± 0.12 | -0.319 ± 0.084 |
| AUCAAGCAAUAUUACGGUAG | – | -2.53 ± 0.39 |
| AUCAAGCAAUAUUACGGUCA | -1.76 ± 0.14 | -1.28 ± 0.13 |
| AUCAAGCAAUAUUACGUAUG | -4.19 ± 0.24 | -1.56 ± 0.14 |
| AUCAAGCAAUAUUACGUCUC | -2.08 ± 0.087 | -1.16 ± 0.11 |
| AUCAAGCAAUAUUACGUGCA | -0.986 ± 0.077 | -0.556 ± 0.088 |
| AUCAAGCAAUAUUACGUGCG | -1.03 ± 0.079 | 0.202 ± 0.099 |
| AUCAAGCAAUAUUACGUUAG | -3.1 ± 0.14 | -3.05 ± 0.2 |
| AUCCAGCAAUAUUACGAACA | -0.801 ± 0.087 | -0.748 ± 0.11 |

| Sequence | self-splicing fitness (ln) (30 °C) | self-splicing fitness (ln) (37 °C) |
| --- | --- | --- |
| AUCCAGCAAUAUUACGAACU | -1.98 ± 0.15 | -0.753 ± 0.18 |
| AUCCAGCAAUAUUACGACAU | 0.00336 ± 0.011 | 0.408 ± 0.032 |
| AUCCAGCAAUAUUACGAGAC | -2.51 ± 0.091 | -2.01 ± 0.11 |
| AUCCAGCAAUAUUACGAUCG | -2.6 ± 0.2 | -3.02 ± 0.37 |
| AUCCAGCAAUAUUACGCACU | -0.149 ± 0.11 | 0.144 ± 0.11 |
| AUCCAGCAAUAUUACGCAGA | -1.38 ± 0.11 | -0.448 ± 0.099 |
| AUCCAGCAAUAUUACGCCAC | -2.03 ± 0.18 | -2.5 ± 0.2 |
| AUCCAGCAAUAUUACGCCGA | -1.37 ± 0.1 | -0.75 ± 0.14 |
| AUCCAGCAAUAUUACGCGCU | -3.57 ± 0.22 | -2.37 ± 0.22 |
| AUCCAGCAAUAUUACGCGUU | -1.06 ± 0.087 | -0.503 ± 0.1 |
| AUCCAGCAAUAUUACGGCAC | -0.153 ± 0.085 | -0.31 ± 0.099 |
| AUCCAGCAAUAUUACGGGAU | -3.75 ± 0.28 | -2.9 ± 0.36 |
| AUCCAGCAAUAUUACGGGUG | -1.18 ± 0.049 | -0.904 ± 0.061 |
| AUCCAGCAAUAUUACGUAUG | -3.79 ± 0.2 | -2.05 ± 0.16 |
| AUCCAGCAAUAUUACGUCAA | -1.99 ± 0.1 | -1.54 ± 0.098 |
| AUCCAGCAAUAUUACGUCCA | -1.22 ± 0.11 | -0.412 ± 0.12 |
| AUCCAGCAAUAUUACGUGAA | -0.631 ± 0.049 | -0.212 ± 0.072 |
| AUCCAGCAAUAUUACGUUAA | -1.79 ± 0.11 | -1.1 ± 0.12 |
| AUCCAGCAAUAUUACGUUCU | -1.64 ± 0.096 | -1.39 ± 0.13 |
| AUCCAGCAAUAUUACGUUGU | -3.92 ± 0.12 | -2.09 ± 0.093 |
| AUCGAGCAAUAUUACGACGC | -1.28 ± 0.094 | -0.674 ± 0.12 |
| AUCGAGCAAUAUUACGAGCU | -2.36 ± 0.4 | – |
| AUCGAGCAAUAUUACGAUCA | – | -0.193 ± 0.26 |
| AUCGAGCAAUAUUACGCCUA | – | -2.39 ± 0.32 |
| AUCGAGCAAUAUUACGCCUU | -1.74 ± 0.16 | -1.72 ± 0.21 |

| Sequence | self-splicing fitness (ln) (30 °C) | self-splicing fitness (ln) (37 °C) |
| --- | --- | --- |
| AUCGAGCAAUAUUACGCGAA | -1.68 ± 0.2 | -0.699 ± 0.2 |
| AUCGAGCAAUAUUACGCGAC | -1.15 ± 0.22 | -2.55 ± 0.4 |
| AUCGAGCAAUAUUACGCGAG | -2.32 ± 0.2 | -1.4 ± 0.14 |
| AUCGAGCAAUAUUACGCGAU | -2.06 ± 0.27 | – |
| AUCGAGCAAUAUUACGCGCU | -2.97 ± 0.26 | -2.87 ± 0.36 |
| AUCGAGCAAUAUUACGCGGG | -2.23 ± 0.24 | -1.21 ± 0.29 |
| AUCGAGCAAUAUUACGCGUC | -2.85 ± 0.21 | -2.7 ± 0.43 |
| AUCGAGCAAUAUUACGCGUG | -2.55 ± 0.13 | -1.2 ± 0.14 |
| AUCGAGCAAUAUUACGCUUC | – | -3.02 ± 0.44 |
| AUCGAGCAAUAUUACGCUUG | -2.41 ± 0.18 | -1.1 ± 0.3 |
| AUCGAGCAAUAUUACGGAGG | -1.89 ± 0.39 | -0.942 ± 0.25 |
| AUCGAGCAAUAUUACGGAUC | -3.66 ± 0.41 | -1.38 ± 0.32 |
| AUCGAGCAAUAUUACGGAUU | -3.48 ± 0.22 | -1.26 ± 0.17 |
| AUCGAGCAAUAUUACGGUGA | -2.39 ± 0.12 | -2.25 ± 0.15 |
| AUCGAGCAAUAUUACGUAAA | -3.43 ± 0.3 | -1.53 ± 0.29 |
| AUCGAGCAAUAUUACGUACG | – | -2.07 ± 0.27 |
| AUCGAGCAAUAUUACGUACU | -1.09 ± 0.15 | -0.28 ± 0.17 |
| AUCGAGCAAUAUUACGUGAC | -3.54 ± 0.26 | -2.91 ± 0.29 |
| AUCGAGCAAUAUUACGUUGC | -2.95 ± 0.29 | -1.7 ± 0.27 |
| AUCGAGCAAUAUUACGUUUU | -4.86 ± 0.36 | -1.23 ± 0.12 |
| AUCUAGCAAUAUUACGACAG | -3.33 ± 0.3 | -2.68 ± 0.31 |
| AUCUAGCAAUAUUACGACGG | -2.58 ± 0.33 | -2.23 ± 0.42 |
| AUCUAGCAAUAUUACGAUAU | -1.15 ± 0.076 | -0.605 ± 0.1 |
